As usually defined, the IC50 is the point on the concentration scale where inhibition reaches its midpoint. A high value points to lower potency.

Assay [1] has as its target T1, mouse Sema 3A protein (mouse, UniProt O08665 21-772, limits assumed).
T1 construct: Produced from mouse Sema 3A protein expressing cells; also called Mouse Sema 3A antigen
T1 sequence (looked up): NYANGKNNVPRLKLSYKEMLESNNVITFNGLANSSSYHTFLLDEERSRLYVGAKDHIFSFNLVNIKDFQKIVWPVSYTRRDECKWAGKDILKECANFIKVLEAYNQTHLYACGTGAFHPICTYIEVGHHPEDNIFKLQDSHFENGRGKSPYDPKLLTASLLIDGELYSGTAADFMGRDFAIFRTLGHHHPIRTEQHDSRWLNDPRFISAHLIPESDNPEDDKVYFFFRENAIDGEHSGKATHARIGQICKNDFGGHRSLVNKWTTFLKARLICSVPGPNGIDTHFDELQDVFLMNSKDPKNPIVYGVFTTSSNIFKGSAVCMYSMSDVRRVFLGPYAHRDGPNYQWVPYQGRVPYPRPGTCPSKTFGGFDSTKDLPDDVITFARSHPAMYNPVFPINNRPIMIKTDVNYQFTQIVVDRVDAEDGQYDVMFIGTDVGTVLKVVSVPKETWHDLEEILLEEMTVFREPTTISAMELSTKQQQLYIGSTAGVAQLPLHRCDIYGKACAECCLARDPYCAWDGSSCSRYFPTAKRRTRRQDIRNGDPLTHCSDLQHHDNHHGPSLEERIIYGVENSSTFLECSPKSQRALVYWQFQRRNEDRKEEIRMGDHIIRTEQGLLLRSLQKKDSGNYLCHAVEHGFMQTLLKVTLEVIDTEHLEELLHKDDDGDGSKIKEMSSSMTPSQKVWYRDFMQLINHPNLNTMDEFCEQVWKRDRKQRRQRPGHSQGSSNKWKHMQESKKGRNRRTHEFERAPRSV
Description: competitive ELISA on plate-coated mouse Sema 3A; competitor biotin-labelled avian-mouse chimeric antibody (clone No. 4-2) at 60 ng/mL. As to the method:
(§1) The obtained clone No. 4-2-derived avian-mouse chimeric antibody in Example 1, the obtained humanized antibodies in Example 2 (Humanized-1 and Humanized-2) and avian-human chimeric antibody were subjected to competitive ELISA to evaluate affinity to the antigen. CL18M (+) avian-mouse chimeric antibody, which served as a negative control, was also measured for affinity to the antigen. Particular measurement conditions were as follows.
(§2) Firstly, 2.5 μg/mL of antigen (mouse and human Sema 3A protein) was dispensed into a 384 Well MaxiSorp Plate (Nunc) and reacted overnight at 4° C. in order to coat the plate with the antigen. The next day, the plate was washed three times with 50 μL/well of washing solution (PBS containing 0.05% Tween 20), to which was added 25 μL/well of blocking solution (PBS containing 1% bovine serum albumin) and the mixture was reacted for 30 minutes. Each of humanized antibodies (Humanized-1 and Humanized-2), avian-human chimeric antibody and avian-mouse chimeric antibody was subjected to serial doubling dilution, to which was mixed anti-Sema 3A avian-mouse chimeric antibody labeled with biotin to the final concentration of 60 ng/mL, and the mixture was reacted with the antigen solid phase plate which was washed three times with 50 μL/well of washing solution for one hour. The plate was washed five times with 50 μL/well of washing solution, to which was added 20 μL/well of diluent in which streptavidin labeled with horseradish peroxidase (HRP) (Thermo Fisher Scientific K.K.) was diluted 10000 times with PBS buffer and the mixture was reacted for 30 minutes. The plate was washed five times with 50 μL/well of washing solution, to which was added 20 μL/well of TMB+(Dako) and the mixture was chromogenically reacted for 20 minutes. Subsequently, to the each well was added 20 μL, of 1M sulfuric acid to quench the reaction. The absorbance was measured at 450 nm using Infinite M1000 (Tecan Trading AG).
A general note: An ELISA detects its analyte on a solid surface through an enzyme-linked reagent.

For assay [2], the target named is bovine serum albumin (BSA) (bovine, UniProt P02769 25-607). The assay is described as follows: antigen solid phase ELISA: coated BSA, anti-human lambda light chain-HRP, A450. On the procedure:
(§3) The obtained avian-mouse chimeric antibody in Example 1 and the obtained humanized antibodies (Humanized-1 and Humanized-2) and avian-human chimeric antibody in Example 2 were measured for antigenic specificity by antigen solid phase ELISA with PBS buffer. The obtained avian-mouse chimeric antibody in Example 1, which was labeled with biotin, was also measured for antigenic specificity. CL18M (+) avian-mouse chimeric antibody, which served as a negative control, was also measured for antigenic specificity. Particular measurement conditions were as follows.
(§4) Firstly, 2.5 μg/mL of antigen (mouse and human Sema 3A protein) was dispensed into a 384 Well MaxiSorp Plate (Nunc) and reacted overnight at 4° C. in order to coat the plate with the antigen. Otherwise, ovalbumin (OVA) and bovine serum albumin (BSA) were immobilized in the plate as negative controls in similar manner in order to examine specificity of antibodies. After reaction, the plate was washed three times with 50 μL/well of washing solution (PBS containing 0.05% Tween 20), to which was added 25 μL/well of blocking solution (PBS buffer containing 1% bovine serum albumin), and the mixture was reacted for 30 minutes. The resultant product was washed three times with 50 μL/well of washing solution, to which were added 20 μL/well of respective antibodies and the mixture was reacted for one hour. The resultant product was washed five times with 50 μL/well of washing solution, to which was added 20 μL of diluent in which anti-human λ light chain goat antibody labeled with horseradish peroxidase (HRP) (SouthernBiotech) was diluted 4000 times with PBS buffer, in which anti-mouse IgG2A goat antibody labeled with horseradish peroxidase (HRP) (Bethyl Laboratories, Inc.) was diluted 2000 times with PBS buffer or in which streptavidin labeled with horseradish peroxidase (HRP) (Thermo Fisher Scientific K.K.) was diluted 10000 times with PBS buffer and the mixture was reacted for one hour. […] The absorbance was measured at 450 nm using Infinite M1000 (Tecan Trading AG).

The target of assay [3] is T2, human Sema 3A protein (human, UniProt Q14563 21-771, limits assumed).
T2 construct: also called Human Sema 3A antigen; human-derived Sema 3A protein
T2 sequence (looked up): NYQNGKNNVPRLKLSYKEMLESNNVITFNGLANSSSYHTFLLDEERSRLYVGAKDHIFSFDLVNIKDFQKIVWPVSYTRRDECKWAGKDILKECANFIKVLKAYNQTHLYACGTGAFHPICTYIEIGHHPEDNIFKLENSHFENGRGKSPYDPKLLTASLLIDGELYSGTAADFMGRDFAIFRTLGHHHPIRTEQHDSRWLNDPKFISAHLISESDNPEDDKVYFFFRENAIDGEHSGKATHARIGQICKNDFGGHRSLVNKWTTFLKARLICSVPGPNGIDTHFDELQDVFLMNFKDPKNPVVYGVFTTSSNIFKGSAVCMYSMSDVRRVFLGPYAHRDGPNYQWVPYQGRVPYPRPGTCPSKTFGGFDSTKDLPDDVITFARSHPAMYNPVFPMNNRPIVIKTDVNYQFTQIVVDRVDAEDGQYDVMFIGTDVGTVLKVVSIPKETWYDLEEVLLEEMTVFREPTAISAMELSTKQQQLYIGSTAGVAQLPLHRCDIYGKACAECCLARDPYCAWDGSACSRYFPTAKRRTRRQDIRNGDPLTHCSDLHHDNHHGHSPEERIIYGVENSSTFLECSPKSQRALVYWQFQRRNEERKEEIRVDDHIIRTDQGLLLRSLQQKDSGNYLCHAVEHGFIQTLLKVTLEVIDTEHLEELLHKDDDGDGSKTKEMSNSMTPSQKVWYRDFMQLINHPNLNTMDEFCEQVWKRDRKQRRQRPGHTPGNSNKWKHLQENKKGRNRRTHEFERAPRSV
The assay is described as follows: competitive ELISA on plate-coated human Sema 3A; competitor biotin-labelled avian-mouse chimeric antibody (clone No. 4-2) at 60 ng/mL. As to the method: as §1, §2

In assay [4] the target is T3, ovalbumin (OVA) (UniProt P01012 2-386).
T3 sequence (looked up): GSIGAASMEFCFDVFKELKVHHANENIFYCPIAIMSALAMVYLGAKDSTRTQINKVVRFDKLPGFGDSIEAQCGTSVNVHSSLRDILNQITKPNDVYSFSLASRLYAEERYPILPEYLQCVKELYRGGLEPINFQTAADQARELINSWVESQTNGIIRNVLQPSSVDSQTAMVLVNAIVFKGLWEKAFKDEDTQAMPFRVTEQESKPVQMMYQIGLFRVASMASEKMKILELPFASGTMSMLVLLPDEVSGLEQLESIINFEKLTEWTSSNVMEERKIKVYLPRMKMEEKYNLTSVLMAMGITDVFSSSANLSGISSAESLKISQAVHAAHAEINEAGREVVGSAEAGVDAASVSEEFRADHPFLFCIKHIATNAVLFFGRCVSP
The assay is described as follows: antigen solid phase ELISA: coated ovalbumin, anti-human lambda light chain-HRP, A450. As to the method:
as §3, §4

In assay [5] the target is T2, human Sema 3A protein. The assay is described as follows: direct solid phase ELISA screening with human Sema 3A as antigen.

Chain of bovine serum albumin (BSA) (P02769 25-607 limits assumed): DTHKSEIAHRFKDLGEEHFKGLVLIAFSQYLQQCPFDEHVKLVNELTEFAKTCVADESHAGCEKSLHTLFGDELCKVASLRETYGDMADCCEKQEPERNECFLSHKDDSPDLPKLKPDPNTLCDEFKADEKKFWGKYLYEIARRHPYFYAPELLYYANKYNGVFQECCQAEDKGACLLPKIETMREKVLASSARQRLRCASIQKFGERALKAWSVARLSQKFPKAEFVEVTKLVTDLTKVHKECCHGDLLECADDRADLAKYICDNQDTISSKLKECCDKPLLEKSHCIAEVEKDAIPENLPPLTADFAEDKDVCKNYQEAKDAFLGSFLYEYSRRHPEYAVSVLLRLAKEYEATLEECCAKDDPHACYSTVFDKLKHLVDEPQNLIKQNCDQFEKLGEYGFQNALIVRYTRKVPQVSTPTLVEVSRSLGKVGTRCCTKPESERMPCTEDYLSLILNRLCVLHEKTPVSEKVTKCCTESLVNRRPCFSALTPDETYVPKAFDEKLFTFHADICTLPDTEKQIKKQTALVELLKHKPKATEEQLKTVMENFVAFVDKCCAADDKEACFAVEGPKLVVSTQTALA

B1: Anti-Sema 3A avian-human chimeric antibody (clone No. 4-2-derived) (antibody, human IgG1)
heavy: not shown
light: ALTQPASVSANLGGTVKITCSGGGSYTGSYYYGWYQQKSPGSALVTMIYYNNKRPSDIPSRFSGSLSGSTNTLTITGVRADDEAVYFCGSADNSGDAFGAGTTLTVLGQPKANPTVTLFPPSSEELQANKATLVCLISDFYPGAVTVAWKADSSPVKAGVETTTPSKQSNNKYAASSYLSLTPEQWKSHRSYSCQVTHEGSTVEKTVAPTECS
With B1, the values for the IC50 in assay [1] and in assay [3] were 0.112 µg/mL and 0.054 µg/mL, respectively. In addition, the binding result in assay [2] and in assay [4] was “no binding (tested: about 2 µg/mL)” throughout.

B2: Anti-Sema 3A avian-mouse chimeric antibody (clone No. 165 strain-derived) (antibody, V domains shown)
VH: AVTLDESGGGLQTPGGGLSLVCKASGFTFSSYEMQWVRQAPGKGLEWVAGIYTGSTWYGAAVKGRATISRDNGQSTVRLQLNNLRAEDTAIYYCAKSGIGVNSAAFIDAWGHGTEVIVSS
VL: ALTQPASVSANPGETVKITCSGGGSYGGSYYYGWYQQKAPGSAPVTVIYNNNKRPSNIPSRFSGSLSGSTNTLTITGVRADDEAVYFCGSADNSGTAFGAGTTLTVL
notes: IgG from DT40 cells in which the constant region of chicken IgM was replaced with that of mouse IgG
For B2, the binding result in assay [5] is “binds”.

B3: Anti-Sema 3A avian-mouse chimeric antibody (clone No. 582 strain-derived) (antibody, V domains shown)
VH: AVTLDESGGGLQTPGGALSLVCKASGFTMSSYEMQWVRQAPGKGLEWVAAIYTRSTWYGAAVKGRATISRDNGQSTVRLQLNNLRAEDTGTYYCAKSGIGLNSAAFIDAWGHGTEVIVSS
VL: ALTQPASVSANPGETVKITCSGGGSYGGSYYYGWYQQKAPGSAPVTVIYTNNKRPSNIPSRFSGSLSGSTNTLTITGVRADDEAVYFCGSADNSGTAFGAGTTLTVL
notes: as for B2
Turning to B3, in assay [5], the binding result is “binds”.

B4: Anti-Sema 3A humanized antibody (Humanized-1) (clone No. 4-2 strain-derived) (antibody, human IgG1, lambda, V domains shown)
VH: EVQLLESGGGLVQPGGSLRLSCAASGFTFSSYPMGWVRQAPGKGLEWVAGIDDDGDSDTRYAPAVKGRATISRDNSKNTVYLQMNSLRAEDTAVYYCAKHTGIGANSAGSIDAWGQGTLVTVSS
VL: SYELTQPPSVSVSPGQTARITCSGGGSYTGSYYYGWYQQKPGQAPVTMIYYNNKRPSDIPERFSGSLSGTTNTLTISGVQAEDEADYYCGSADNSGDAFGTGTKVTVLG
notes: Human IgG1 heavy and human lambda light constant regions
Consider B4, for which the IC50 was 0.12 µg/mL in assay [1] and 0.071 µg/mL in assay [3]. Moreover, the binding result in assay [2] and in assay [4] was “no binding (tested: about 2 µg/mL)” in each case.

B5: Anti-Sema 3A humanized antibody (Humanized-2) (clone No. 4-2 strain-derived) (antibody, human IgG1, lambda, V domains shown)
VH: EVQLLESGGGLVQPGGSLRLSCAASGFTFSSYPMGWVRQAPGKGLEWVAGIDDDGDSDTRYAPAVKGRATISRDNSKNTVYLQMNSLRAEDTAVYYCAKHTGIGANSAGSIDAWGQGTLVTVSS
VL: SYELTQPPSVSVSPGQTARITCSGGGSYTGSYYYGWYQQKPGQAPVTVIYYNNKRPSDIPERFSGSLSGTTNTLTISGVQAEDEADYYCGSADNSGDAFGTGTKVTVLG
notes: as for B4
For B5, the results for the IC50 in assay [1] and in assay [3] were 0.157 µg/mL and 0.101 µg/mL, respectively. The binding result in assay [2] and in assay [4] was “no binding (tested: about 2 µg/mL)” each time.

The record behind these values is US20150368327A1 (YOKOHAMA CITY UNIVERSITY, published 2015).
